Measurements from the supplement of paper PMC7125110.
± gives the standard error. Fewer inactive variants are shown than the library holds.

B1: glmS ribozyme (parent)
chain: AUAAAAGCGCCAGAACUACAGAAAUGUAGUUGACGAGGAGGAGGUUUAUCGAAUUUUCGGCGGAUGCCUCCAAA

Legend:
Details in all cases: with glucosamine-6-phosphate
glucosamine-6-phosphate [1] = variants of: B1; test: self-cleavage kobs at 640 uM GlcN6P; higher = faster cleavage; RNA array
Procedure, shortened: (§1)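 Barcoded ribozyme variants were transcribed in situ on sequenced MiSeq chips by E. coli RNA polymerase. At 37 °C, a hybridised Cy3 probe tracked them while glucosamine-6-phosphate (40 μM to 10 mM) in HEPES/KCl/Mg(OAc)2 buffer flowed in and tiles were imaged over ~14 h. Per-tile medians of signals normalised to baseline and to non-cleaving reference variants were fit to one- or two-exponential decays, giving kobs. kcat and KM came from weighted Michaelis–Menten fits across concentrations.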

glucosamine-6-phosphate [2] = variants of: B1; test: self-cleavage kobs at 10000 uM GlcN6P; higher = faster cleavage; RNA array
Procedure, shortened: as §1

glucosamine-6-phosphate [3] = variants of: B1; test: self-cleavage kobs at 2500 uM GlcN6P; higher = faster cleavage; RNA array
Procedure, shortened: as §1

Variant | self-cleavage kobs at 640 uM GlcN6P (glucosamine-6-phosphate [1]) [s⁻¹] | self-cleavage kobs at 10000 uM GlcN6P (glucosamine-6-phosphate [2]) [s⁻¹] | self-cleavage kobs at 2500 uM GlcN6P (glucosamine-6-phosphate [3]) [s⁻¹]
C16U A39G G66A | 0.00662 ± 0.0015 |  | 
C8G G35A G44C | < 1e-05 | < 1e-05 | 
G13U A48C G59U G66U | < 1e-05 |  | 
C16A G62U C71G | < 1e-05 |  | < 1e-05
C8U U56G G63A | < 1e-05 |  | 
C11U U57G G63A | < 1e-05 |  | < 1e-05
G7U G40U C50G | < 1e-05 |  | < 1e-05
A6C C11A U47C | < 1e-05 |  | < 1e-05
G7C G40U | < 1e-05 | < 1e-05 | < 1e-05
C34G U65G | < 1e-05 | < 1e-05 | < 1e-05
A42U G44C | < 1e-05 | < 1e-05 | < 1e-05
G40U U45C | 0.000101 ± 2.7e-05 | 0.000329 ± 7e-05 | 0.000729 ± 0.00014
A15U U31A C34A | < 1e-05 |  | < 1e-05
A33G A36U G38C | < 1e-05 |  | 
A12G G59C A64U | < 1e-05 |  | 
U30G G35A A39U U55C | < 1e-05 |  | < 1e-05
G32U U47A A53G U56A C71U | 7.91e-05 ± 2.4e-05 |  | 0.000259 ± 6.2e-05
G38A G41U A42C U45C U54G C68G | < 1e-05 |  | 
G41U C58G C61U A64U C71U | < 1e-05 |  | 
C34A A53U C70U | < 1e-05 |  | 
G43C A52C C68A | < 1e-05 |  | 
G32U A33U U56G | < 1e-05 |  | 
G60U U69A | < 1e-05 | < 1e-05 | < 1e-05

Variant | self-cleavage kobs at 640 uM GlcN6P (glucosamine-6-phosphate [1]) [s⁻¹] | self-cleavage kobs at 10000 uM GlcN6P (glucosamine-6-phosphate [2]) [s⁻¹] | self-cleavage kobs at 2500 uM GlcN6P (glucosamine-6-phosphate [3]) [s⁻¹]
A36C G51A C71G | 6.03e-05 ± 2.2e-05 |  | 
G7A A48G A64U C70U | < 1e-05 |  | 
A6C C16A U31C | < 1e-05 |  | < 1e-05
C34G U54A A64G | < 1e-05 |  | < 1e-05
C34U G43U G59C | < 1e-05 |  | < 1e-05
G9U A12C | < 1e-05 | < 1e-05 | 
G9A G13C U57C | < 1e-05 |  | < 1e-05
C8U G63U C68U | < 1e-05 |  | 
C8U A33U G60U | < 1e-05 |  | < 1e-05
A42C G44U A64G C68G | < 1e-05 |  | 
C10G G44U C70U | < 1e-05 |  | 
G9A A42G A52G | < 1e-05 |  | 
G43U G66U C71G | < 1e-05 |  | < 1e-05
G13C G41U C71U | < 1e-05 |  | 
A14C G40U C67U | < 1e-05 |  | 
C8A U31A G38C G40U C50G G60C C71A | < 1e-05 |  | 
G13A G40A G44U C67U C68G | < 1e-05 | < 1e-05 | < 1e-05
G7A G37U U46G U55C C58A | < 1e-05 |  | 
C11G G44U C50G G62C | < 1e-05 |  | < 1e-05
A36C G51U C70G | 0.000181 ± 5.1e-05 |  | 4.65e-05 ± 1.9e-05
U30A G38C A39U | < 1e-05 |  | 
C11G G41U C50U | < 1e-05 |  | < 1e-05
A33C G66C C68G C70A | < 1e-05 |  | 

Variant | self-cleavage kobs at 640 uM GlcN6P (glucosamine-6-phosphate [1]) [s⁻¹] | self-cleavage kobs at 10000 uM GlcN6P (glucosamine-6-phosphate [2]) [s⁻¹] | self-cleavage kobs at 2500 uM GlcN6P (glucosamine-6-phosphate [3]) [s⁻¹]
G9U C34U U55C G60C G63A | < 1e-05 |  | 
C8G A15G C16U U45G U49A | < 1e-05 |  | < 1e-05
A12G G43C G51U G63A U65C C68A | < 1e-05 |  | < 1e-05
C11G C58G C70U | 8.61e-05 ± 2.4e-05 |  | 
A12G U30G G43C U46G | < 1e-05 |  | 
C11G U30G A42U A53U G63U U65A C68G | < 1e-05 |  | 
C8A A33G C34A | < 1e-05 |  | 
G35C G41A U49A C58G C71U | < 1e-05 |  | 
G9A G44U A52G U65G | < 1e-05 |  | < 1e-05
C11A U30C G38U | < 1e-05 |  | < 1e-05
U46C G59C | < 1e-05 |  | 
C61G G63A C71G | 0.000127 ± 4.2e-05 |  | 0.000255 ± 9.2e-05
G43A U46C U54A U56A U69C | < 1e-05 |  | 
A64U C67U C71U | < 1e-05 |  | 
C8G A33U G41U | < 1e-05 |  | 
A15C A33C G59C | < 1e-05 |  | < 1e-05
G43C G51A C67U | < 1e-05 |  | 
G44C C68A U69G | < 1e-05 |  | 
G43A U55A C58U | < 1e-05 |  | 
A14U A15U G35A A39C G40U | < 1e-05 |  | 
G40U G44U G62U | < 1e-05 |  | < 1e-05
